Assay results taken from patent publication US8153759B2, “Depsipeptide containing lactic acid residue” (National University Corporation Gunma University, priority 2006, dated 2012).
Non-standard residues stand in square brackets, D forms with d. No end group written: not given here. Hmb = valic acid residue (β-branched hydroxycarboxylic acid); Lac = C[C@H](O)C(=O)O

Assay: Observation of temperature responsiveness by apparent absorbance (turbidity at 350 nm) of aqueous polymer solutions
Format: physicochemical
Conditions: for temperature responsiveness (gelation/aggregation by heating, liquefaction by cooling): reversibility / aggregation temperature: aqueous solution 10 mg/mL; for temperature responsiveness (gelation/aggregation by heating, liquefaction by cooling): reversibility: temperature-increase and -decrease rate 1° C./5 minutes between 20° C. and 70° C., 350 nm; for aggregation temperature: rate 1° C./5 minutes, 350 nm (FIG. 9)
Experimental: (§1) FIG. 5 illustrates a graph obtained by the following procedure: an aqueous solution of poly(Gly-Ile-Gly-Lac-Pro) (SEQ ID NO: 7) (10 mg/mL) which is one embodiment of the present invention was put in a 1-mm-thick quartz cell for absorption spectra; the temperature was increased at a rate of 1° C./5 minutes between 20° C. and 70° C. and then decreased; transmittance (%) was measured with respect to a light of 350 nm at each temperature in a 1° C. interval; and a turbidity (%) obtained by subtracting the transmittance (%) from 100 was plotted.
as §1, with “FIG. 6” for “FIG. 5”, “of poly(Ala-Ile-Gly-Lac-Pro)” for “of poly(Gly-Ile-Gly-Lac-Pro)”, “NO: 8)” for “NO: 7)”
as §1, with “FIG. 9” for “FIG. 5”, “of poly(Gly-Val-Gly-Lac-Pro)” for “of poly(Gly-Ile-Gly-Lac-Pro)”, “NO: 9)” for “NO: 7)”, “plotted. In addition, as a comparative example, a plot of an aqueous solution (10 mg/mL) of poly(Gly-Val-Gly-Hmb-Pro) was shown.” for “plotted.”
as §1, with “FIG. 10” for “FIG. 5”, “of poly(Gly-Val-Gly-Lac-Pro)” for “of poly(Gly-Ile-Gly-Lac-Pro)”, “NO: 9)” for “NO: 7) (10 mg/mL)”, “invention with different concentrations (10, 20, 30, and 40 mg/mL)” for “invention”
as §1, with “FIG. 11” for “FIG. 5”, “of poly(Gly-Val-Gly-Lac-Pro)” for “of poly(Gly-Ile-Gly-Lac-Pro)”, “NO: 9) (40” for “NO: 7) (10”
The change in temperature responsiveness of each polymer obtained in Examples 2 and 4 due to heating an aqueous solution of the polymer was observed by apparent absorbance. The wavelength for observation was 350 nm. The wavelength corresponds to phenomenon of light scattering, i.e. white turbidity, by visual observation. Here, spectrum of poly(Gly-Ile-Gly-Lac-Pro (SEQ ID NO: 7)) and poly(Ala-Ile-Gly-Lac-Pro) (SEQ ID NO: 8) are shown in FIG. 5 and FIG. 6, respectively. The ordinate axes each represent turbidity converted from the transmittance. From the figure, the temperature responsiveness rate can be compared. […] In addition, in comparison between the observation by visual observation and the measured turbidity, the polymer underwent aggregation adequately even when the turbidity exceeds about 10 to 20%. […] The solution was actually returned to a uniform solution finally by left standing at 4° C. for 1 to 2 days. The extremely slow responsiveness (return to a uniform solution) at a low temperature is a novel property that has not happened before. […]

Substance | temperature responsiveness (gelation/aggregation by heating, liquefaction by cooling): reversibility | aggregation temperature | other results
poly(Ala-Ile-Gly-Lac-Pro) (AIG[Lac]P; numbers in words are those of the source; also: polymerized repeat, ~10 units) [depsipeptide polymer, polymerization degree about 10 (molecular weight about 4,500)] | irreversible temperature responsiveness for several hours even when cooled | – | time left standing until aggregated solution returned to a uniform solution (aggregation state at high temperature transferred to low temperature, left standing at 4° C.): 1 to 2 days
poly(Gly-Ile-Gly-Lac-Pro) (GIG[Lac]P; numbers in words are those of the source; also: polymerized repeat, ~3 units) [depsipeptide polymer, polymerization degree about 3 (molecular weight about 1,200)] | reversible temperature responsiveness | – | –
poly(Gly-Val-Gly-Hmb-Pro) (GVG[Hmb]P; also: polymerized repeat unit) [comparative depsipeptide polymer, Hmb=2-hydroxy-3-methylbutanoic acid (valic acid residue), reference compound] | – | 20-30 °C | –
poly(Gly-Val-Gly-Lac-Pro) (GVG[Lac]P; also: polymerized repeat unit) | – | ≥ 70 °C | reversibility of phase transition phenomenon (aqueous solution 40 mg/mL, 1° C./5 minutes, 20-70° C. (FIG. 11)): reversible; aggregation temperature at increased concentration (aqueous solution, concentration increased in the range 10 to 40 mg/mL (FIG. 10)): ≤ 70 °C; concentration dependence of aggregation temperature (range of 10 to 40 mg/mL (FIG. 10)): decrease with the increase in the concentration
